In patent publication CN114805590A (SUNSHINE GUOJIAN PHARMACEUTICAL SHANGHAI CO LTD, dated 2022):

How the values were obtained:
[1] = molecular target: T1, HER2-DI-DIII-V483A/D480A/E485A (Homo sapiens (Human), UniProt P04626 23-513); assay: ELISA, plate coated with HER2-DI-DIII-V483A/D480A/E485A
T1 chain: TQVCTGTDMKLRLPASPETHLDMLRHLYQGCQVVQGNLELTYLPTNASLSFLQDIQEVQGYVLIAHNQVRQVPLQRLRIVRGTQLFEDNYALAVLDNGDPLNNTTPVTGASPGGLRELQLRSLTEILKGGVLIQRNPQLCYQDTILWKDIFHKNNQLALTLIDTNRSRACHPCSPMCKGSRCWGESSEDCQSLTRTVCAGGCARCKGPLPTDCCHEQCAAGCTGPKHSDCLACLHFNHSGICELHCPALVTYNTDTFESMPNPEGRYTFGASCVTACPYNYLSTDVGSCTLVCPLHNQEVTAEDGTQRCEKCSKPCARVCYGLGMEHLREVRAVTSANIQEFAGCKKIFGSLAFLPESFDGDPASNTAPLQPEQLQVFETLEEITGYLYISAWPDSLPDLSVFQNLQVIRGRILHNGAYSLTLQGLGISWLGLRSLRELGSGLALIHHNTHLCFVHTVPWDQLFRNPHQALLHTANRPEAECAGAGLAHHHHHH

[2] = molecular target: T2, HER2 (on HER2高表达细胞株 N87 / BT474) (UniProt P04626 23-1255, limits assumed); assay: cell-based or functional assay
[3] = molecular target: T3, HER2-DI-DIII-L295P/H296N (Homo sapiens (Human), UniProt P04626 23-510); assay: ELISA, plate coated with HER2-DI-DIII-L295P/H296N
T3 construct: also called HER2-DI-DIII-L295/H296N

[4] = molecular target: T2, HER2 (on HER2高表达细胞株 N87 / BT474); assay: cell-based or functional assay; remark: listed apart in the source
[5] = molecular target: T4, HER2-DI-DIII-his (Homo sapiens (Human), UniProt P04626 23-510); assay: ELISA, plate coated with HER2-DI-DIII-his, detection with HRP-anti human IgG Fc
T4 construct: also called HER2-ECD-DI-DIII

binding result [1]: no binding (tested: 最高浓度为10nM) | 最大抑制率(%), BT474细胞增殖 (CCK8) [2]: 47.1% | EC50 [3]: 0.027 nM | 最大抑制率(%), N87细胞增殖 (CCK8) [4]: 41.8% | EC50 [5]: 0.043 nM
B1: 抗HER2抗体612 (antibody, V domains shown)
VH: QVQLVQSGAEVKKPGASVKVSCKGSGYTFTDYAIHWVRQAPGQSLEWIGVFSIYYENINYNQKFKGRATMTVDKSTSTAYMELRSLRSDDTAVYYCARRDGGTINYWGQGTLVTVSS
VL: DVVMTQSPLSLPVTLGQPASISCRSSQSLVHSNGNTYLHWYQQRPGQSPRLLIYKVSNRFSGVPDRFSGSGSGTDFTLKISRVEAEDVGVYFCSQSTHIPWTFGQGTKVEIK
notes: No visible text gives the full heavy chain; also called 19H6-Hu
